{"source": "paper PMC11605949", "biological_target": "HER2 (human, UniProt P04626 23-652)", "experiment": "SPR"}
{"binder": "HER2 aptamer (ssDNA, 5'-SH-(CH2)6) DNA: AACCGCCCAAATCCCTAAGAGTCTGCACTTGTCATTTTGTATATGTATTTGGTTTTTGGCTCTCACAGACACACTACACACGCACA", "values": [{"measurement": "binding result", "value": "binds"}]}
